The target of this assay is IL-12 receptor.

Chain of 18/12/TxM triple-cytokine fusion protein (Q13261 whole entry, looked up, the tested form may be a part): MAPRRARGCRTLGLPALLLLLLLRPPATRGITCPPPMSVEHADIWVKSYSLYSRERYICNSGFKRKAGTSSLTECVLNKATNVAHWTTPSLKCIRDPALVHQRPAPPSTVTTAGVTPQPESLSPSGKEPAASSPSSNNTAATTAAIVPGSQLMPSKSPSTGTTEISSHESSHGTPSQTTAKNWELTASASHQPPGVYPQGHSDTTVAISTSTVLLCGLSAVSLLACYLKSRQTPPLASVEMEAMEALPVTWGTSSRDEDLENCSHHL
Chain of 18/12/TxM triple-cytokine fusion protein (P29459 whole entry, looked up, the tested form may be a part): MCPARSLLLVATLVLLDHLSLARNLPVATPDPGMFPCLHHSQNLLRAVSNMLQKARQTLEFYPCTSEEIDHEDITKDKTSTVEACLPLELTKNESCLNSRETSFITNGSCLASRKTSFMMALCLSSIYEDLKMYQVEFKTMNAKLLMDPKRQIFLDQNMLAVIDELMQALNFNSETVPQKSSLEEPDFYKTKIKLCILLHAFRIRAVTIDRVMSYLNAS
Chain of 18/12/TxM triple-cytokine fusion protein (P29460 whole entry, looked up, the tested form may be a part): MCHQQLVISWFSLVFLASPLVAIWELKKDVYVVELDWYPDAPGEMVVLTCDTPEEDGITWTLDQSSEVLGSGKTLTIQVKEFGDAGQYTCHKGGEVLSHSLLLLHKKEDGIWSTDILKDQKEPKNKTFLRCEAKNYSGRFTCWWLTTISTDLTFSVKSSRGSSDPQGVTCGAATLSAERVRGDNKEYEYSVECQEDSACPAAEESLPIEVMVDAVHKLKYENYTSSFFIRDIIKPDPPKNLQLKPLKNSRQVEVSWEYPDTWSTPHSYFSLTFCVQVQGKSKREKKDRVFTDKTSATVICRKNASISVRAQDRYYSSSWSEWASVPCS
Chain of 18/12/TxM triple-cytokine fusion protein (Q14116 whole entry, looked up, the tested form may be a part): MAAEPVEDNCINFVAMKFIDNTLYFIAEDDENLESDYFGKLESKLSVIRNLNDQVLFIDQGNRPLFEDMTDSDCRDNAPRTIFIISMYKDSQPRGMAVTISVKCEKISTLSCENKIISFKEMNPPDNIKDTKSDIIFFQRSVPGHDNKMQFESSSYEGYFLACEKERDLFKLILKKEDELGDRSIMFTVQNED

Substance “18/12/TxM triple-cytokine fusion protein (from UniProt Q14116 37-193; P29460 23-328; P29459 23-219; Q13261 31-95) (complex)” displayed an activation of IL-12 reporter HEK-Blue (HEK12) cells (STAT4-inducible SEAP), EC50 of 0.0991 nM.

For the origin of these results see PMC8889352.
